Tests used:
rat serum albumin [1] = target: T1, rat serum albumin (rat, UniProt P02770 25-608); assay: monoclonal phage ELISA at pH 7.4, antigen coated at 5 ug/ml, anti-human kappa-HRPO, A450
T1 construct: Bought protein; also called RSA; rat SA
Method: (§1) For the monoclonal phage ELISA, the recombinant phage was obtained from positive E. coli clones by phage rescue, and ˜10⁸ CFU/well were added to MaxiSorb ELISA plates (Nunc, Roskilde, Denmark) that were coated with 5 μg/ml HSA, RSA, MSA or BSA. The phage was allowed to bind to the antigens either at pH 6 or at pH 7.4 for 1 h at 37° C. A goat anti-human kappa L Ab-conjugated with HRPO (Sigma-Aldrich) was used as a secondary antibody. The binding signals were visualized with a TMB substrate (BD Science, San Jose, Calif., USA), and the absorbance at 450 nm was measured using an ELISA reader (Bio-Rad, Hercules, Calif., USA). The data represent the average of three experiments standard deviation. For the conventional ELISA, the various antigens [human SA, rat SA, mouse SA, monkey SA (Alpha diagnositic Intl., San Antonio, Tex., USA), canine SA (CUSABIO, Wuhan, Hubei, China). rabbit SA (Sigma-Aldrich), epidermal growth factor receptor (EGFR) (R&D systems, Minneapolis, Minn., USA), epithelial cell adhesion molecule (EpCAM) (R&D systems), IL-15 receptor a (IL-15Ra) (R&D systems), IL-10 (eBioscience, San Diego, Calif., USA), CD16a (R&D systems), c-MET (Sinobiological, Beijing, China)] at 5 μg/ml concentrations were immobilized on the microtiter plates, and the Fab molecules were allowed to bind to the antigens, and detected as above. To determine the concentration of soluble Fab or Fab-hGH fusion proteins, a sandwich ELISA was performed using a mouse anti-human IgG Fd mAb (AprilBio) as a capturing Ab and the goat anti-human kappa L chain pAb-HRPO conjugated (Sigma-Aldrich) as a detecting antibody. The human Fab fragment (Bethyl, Montgomery, Tex., USA) with a known concentration was used to draw the standard curve. For detecting the hGH domain, T-20, a goat pAb specific for the C-terminus of the hGH (Santacruz Biotechnology, Dallas, Tex., USA) and NYThGH, a mouse mAb specific for full-length hGH (Prospec, East Brunswick, N.J., USA) were used followed by a rabbit anti-goat IgG pAb-HRPO conjugated (Sigma-Aldrich) or a goat anti-mouse IgG pAb-HRPO conjugated (Sigma-Aldrich), respectively as a secondary antibody. A goat anti-human GCSF pAb (R&D Systems) was used to detecting the G-CSF domain, and a rabbit anti-human IFN-β pAb (PEPROTECH, Rocky Hill, USA) was used to detect the IFN-β domain.

mouse serum albumin [2] = target: T2, mouse serum albumin (mouse, UniProt P07724 25-608); assay: as above
T2 construct: Bought protein; also called MSA; mouse SA
T2 sequence (P07724 25-608 limits assumed): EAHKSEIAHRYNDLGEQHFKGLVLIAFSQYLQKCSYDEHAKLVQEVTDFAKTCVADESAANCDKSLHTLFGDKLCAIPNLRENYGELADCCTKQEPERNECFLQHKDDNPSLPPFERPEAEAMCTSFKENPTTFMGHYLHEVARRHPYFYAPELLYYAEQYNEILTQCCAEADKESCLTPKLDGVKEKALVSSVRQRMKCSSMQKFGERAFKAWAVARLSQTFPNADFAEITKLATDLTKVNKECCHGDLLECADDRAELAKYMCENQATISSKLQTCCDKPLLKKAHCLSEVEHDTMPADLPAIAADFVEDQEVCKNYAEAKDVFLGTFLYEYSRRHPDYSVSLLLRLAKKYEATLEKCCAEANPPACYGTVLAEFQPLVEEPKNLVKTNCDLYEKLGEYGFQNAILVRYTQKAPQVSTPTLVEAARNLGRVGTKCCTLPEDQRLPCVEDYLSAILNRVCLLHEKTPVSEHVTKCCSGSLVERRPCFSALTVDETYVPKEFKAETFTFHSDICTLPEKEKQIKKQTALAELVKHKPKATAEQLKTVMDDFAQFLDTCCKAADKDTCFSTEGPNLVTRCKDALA
Method: as §1

bovine serum albumin [3] = target: T3, bovine serum albumin (bovine, UniProt P02769 25-607); assay: monoclonal phage ELISA at pH 6, antigen coated at 5 ug/ml, anti-human kappa-HRPO, A450
T3 construct: also called BSA; bovine SA
T3 sequence (P02769 25-607 limits assumed): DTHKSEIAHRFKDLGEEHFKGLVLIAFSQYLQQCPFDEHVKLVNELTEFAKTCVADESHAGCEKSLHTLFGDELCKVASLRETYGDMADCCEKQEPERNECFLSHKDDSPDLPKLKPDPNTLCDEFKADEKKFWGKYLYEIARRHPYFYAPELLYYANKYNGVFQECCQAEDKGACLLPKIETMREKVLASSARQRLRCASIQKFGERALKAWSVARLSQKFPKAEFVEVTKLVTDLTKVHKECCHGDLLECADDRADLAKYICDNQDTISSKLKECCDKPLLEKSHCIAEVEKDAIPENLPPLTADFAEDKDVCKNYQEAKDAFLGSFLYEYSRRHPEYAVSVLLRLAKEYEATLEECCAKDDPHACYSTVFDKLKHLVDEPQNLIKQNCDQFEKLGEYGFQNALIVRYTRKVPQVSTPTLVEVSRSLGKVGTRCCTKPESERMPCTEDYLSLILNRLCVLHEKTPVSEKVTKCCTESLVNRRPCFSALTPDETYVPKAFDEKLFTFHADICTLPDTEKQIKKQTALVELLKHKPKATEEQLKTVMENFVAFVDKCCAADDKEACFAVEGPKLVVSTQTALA
Method: as §1

mouse serum albumin [4] = target: T2, mouse serum albumin; assay: monoclonal phage ELISA at pH 6: Fab on phage, about 10^8 CFU/well, on antigen coated at 5 ug/ml; anti-human kappa-HRPO, TMB, A450
Method: (§2) For the monoclonal phage ELISA, the recombinant phage was obtained from positive E. coli clones by phage rescue, and ˜10⁸ CFU/well were added to MaxiSorb ELISA plates (Nunc, Roskilde, Denmark) that were coated with 5 μg/ml HSA, RSA, MSA or BSA. The phage was allowed to bind to the antigens either at pH 6 or at pH 7.4 for 1 h at 37° C. A goat anti-human kappa L Ab-conjugated with HRPO (Sigma-Aldrich) was used as a secondary antibody. The binding signals were visualized with a TMB substrate (BD Science, San Jose, Calif., USA), and the absorbance at 450 nm was measured using an ELISA reader (Bio-Rad, Hercules, Calif., USA). The data represent the average of three experiments standard deviation. For the conventional ELISA, the various antigens [human SA, rat SA, mouse SA, monkey SA (Alpha diagnositic Intl., San Antonio, Tex., USA), canine SA (CUSABIO, Wuhan, Hubei, China). rabbit SA (Sigma-Aldrich), epidermal growth factor receptor (EGFR) (R&D systems, Minneapolis, Minn., USA), epithelial cell adhesion molecule (EpCAM) (R&D systems), IL-15 receptor a (IL-15Ra) (R&D systems), IL-10 (eBioscience, San Diego, Calif., USA), CD16a (R&D systems), c-MET (Sinobiological, Beijing, China)] at 5 μg/ml concentrations were immobilized on the microtiter plates, and the Fab molecules were allowed to bind to the antigens, and detected as above. […]

rat serum albumin [5] = target: T1, rat serum albumin; assay: ELISA at pH 6.0: purified soluble Fab titrated on antigen coated at 5 ug/ml; anti-human kappa L chain pAb-HRPO, TMB, A450
Method: as §2

human serum albumin [6] = target: T4, human serum albumin (human, UniProt P02768 25-609); assay: as above
T4 construct: Bought protein; also called HSA; human SA
Method: as §2

rat serum albumin [7] = target: T1, rat serum albumin; assay: ELISA at pH 7.4: purified soluble Fab titrated on antigen coated at 5 ug/ml; anti-human kappa L chain pAb-HRPO, TMB, A450
Method: as §2

human serum albumin [8] = target: T4, human serum albumin; assay: as above
Method: as §2

rat serum albumin [9] = target: T1, rat serum albumin; assay: monoclonal phage ELISA at pH 7.4: Fab on phage, about 10^8 CFU/well, on antigen coated at 5 ug/ml; anti-human kappa-HRPO, TMB, A450
Method: as §1

human serum albumin [10] = target: T4, human serum albumin; assay: as above
Method: as §1

mouse serum albumin [11] = target: T2, mouse serum albumin; assay: as above
Method: as §1

rat serum albumin [12] = target: T1, rat serum albumin; assay: monoclonal phage ELISA at pH 6, antigen coated at 5 ug/ml, anti-human kappa-HRPO, A450
Method: as §1

mouse serum albumin [13] = target: T2, mouse serum albumin; assay: as above
Method: as §1

bovine serum albumin [14] = target: T3, bovine serum albumin; assay: monoclonal phage ELISA at pH 7.4, antigen coated at 5 ug/ml, anti-human kappa-HRPO, A450
Method: as §1

T1 sequence (P02770 25-608 limits assumed): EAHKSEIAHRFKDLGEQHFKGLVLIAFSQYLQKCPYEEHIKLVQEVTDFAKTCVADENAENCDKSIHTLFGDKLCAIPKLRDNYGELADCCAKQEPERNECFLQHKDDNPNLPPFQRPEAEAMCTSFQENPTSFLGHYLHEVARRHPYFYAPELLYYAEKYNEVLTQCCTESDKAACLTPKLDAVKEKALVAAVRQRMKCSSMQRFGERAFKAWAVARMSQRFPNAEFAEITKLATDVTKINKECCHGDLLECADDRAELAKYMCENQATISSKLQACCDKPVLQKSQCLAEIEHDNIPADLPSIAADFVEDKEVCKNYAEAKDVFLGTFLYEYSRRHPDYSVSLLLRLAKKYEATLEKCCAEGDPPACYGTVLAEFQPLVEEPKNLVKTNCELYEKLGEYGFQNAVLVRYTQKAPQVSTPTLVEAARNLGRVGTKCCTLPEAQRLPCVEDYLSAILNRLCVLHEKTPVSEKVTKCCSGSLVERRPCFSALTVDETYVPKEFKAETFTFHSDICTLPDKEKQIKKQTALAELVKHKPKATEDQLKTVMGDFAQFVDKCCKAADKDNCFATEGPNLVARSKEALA

B1: SA140 (Fab, V domains shown)
VH: QVQLVQSGGGVVQTGGSLRLSCAASGFTFRNYGIHWVRQAPGKGLEWVASISYDGSNKYYADSVKGRFTISRDNSRNTVHVQMDSLRGGDTAVYYCARDVHYYGSGSYYNAFDIWGQGTLVTVSS
VL: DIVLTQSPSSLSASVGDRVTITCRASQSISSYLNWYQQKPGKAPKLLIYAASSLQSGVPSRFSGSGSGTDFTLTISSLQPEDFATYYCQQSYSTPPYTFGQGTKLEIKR
notes: also called SA140 Fab
binding result (rat serum albumin [1]): no binding
binding result (mouse serum albumin [2]): no binding
binding result (bovine serum albumin [3]): no binding

B2: SL310 (Fab, V domains shown)
VH: QVQLVQSGGGPVKPGGSLRLSCAASGFMFRAYSMNWVRQAPGKGLEWVSSISSSGRYIHYADSVKGRFTISRDNAKNSLYLQMNSLRAEDTAVYYCARETVMAGKALDYWGQGTLVTVSS
VL: ELVLTQSPGTLSLSPGERATLSCRASQSVSSSSLAWYQQKPGQAPRLLIYGASSRATGIPDRFSGSGSGTDFTLTISSLQPEDAATYYCQKYSSYPLTFGQGTKLEIKR
notes: Human Fab (VH+CH1, VL+CLk); tested on phage and as soluble Fab purified from E. coli; also called SL310 Fab
binding result (mouse serum albumin [4]): binds
EC50 (read off the curve) (rat serum albumin [5]): ~0.6 µg/mL
EC50 (read off the curve) (human serum albumin [6]): ~0.1 µg/mL
EC50 (read off the curve) (rat serum albumin [7]): ~0.2 µg/mL
EC50 (read off the curve) (human serum albumin [8]): ~0.3 µg/mL
binding result (bovine serum albumin [3]): no binding

B3: SL301 (Fab, V domains shown)
VH: B2 VH
VL: ELVLTQSPGTLSLSPGERATLSCRASETVSSRQLAWYQQKPGQAPRLLIYGASSRATGIPDRFSGSGSGTDFTLTISRLEPEDSAVFYCQQYGSSPRTFGGGTKLEIKR
notes: Human Fab (VH+CH1, VL+CLk); tested on phage and as soluble Fab purified from E. coli; also called SL301 Fab
binding result (rat serum albumin [9]): binds
binding result (human serum albumin [10]): binds
binding result (bovine serum albumin [3]): no binding

B4: SL18 (Fab, V domains shown)
VH: EVQLVQSGTEVKKPGESLKISCKISGYSFTAYWIAWVRQMPGKGLEWMGMIWPPDADARYSPSFQGQVTFSVDKSISTAYLQWHSLKTSDTAVYYCARLYSGSYSPWGQGTLVTVSS
VL: ELVLTQSPGTLSLSPGERATLSCRASQSIFNYVAWYQQKPGQAPRLLIYDASNRATGIPARFSGSGSGTDFTLTISSLEPEDFAVYYCQQRSKWPPTWTFGQGTRVDIKR
notes: Human Fab (VH+CH1, VL+CLk); tested on phage and as soluble Fab purified from E. coli; also called SL18 Fab
binding result (rat serum albumin [9]): binds
binding result (mouse serum albumin [11]): binds
binding result (human serum albumin [10]): binds
binding result (bovine serum albumin [3]): no binding

B5: SA141 (Fab, V domains shown)
VH: QVQLVQSGGGLVQPGGSLRLSCAASGFTFSSYAMSWVRQAPGKGLEWLSVISHDGGFQYYADSVKGRFTVSRDNSKNTLYLQMNSLRAEDTAVYYCARAGWLRQYGMDVWGQGTLVTVSS
VL: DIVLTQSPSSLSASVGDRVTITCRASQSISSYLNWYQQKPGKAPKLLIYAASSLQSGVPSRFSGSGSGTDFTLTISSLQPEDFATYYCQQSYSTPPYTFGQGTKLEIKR
notes: also called SA141 Fab
binding result (human serum albumin [10]): binds
binding result (rat serum albumin [12]): no binding
binding result (bovine serum albumin [3]): no binding
binding result (mouse serum albumin [13]): no binding

B6: SA139 (Fab, V domains shown)
VH: EVQLLQSGAEVKEPGASVKVSCKASGYTFSSYGISWVRQAPGQGLEWVGRINTYNGNTGYAQRLQGRVTMTTDTSTSIAYMEVRSLRSDDTAVYYCARLGHCQRGICSDALDTWGQGTMVTVSS
VL: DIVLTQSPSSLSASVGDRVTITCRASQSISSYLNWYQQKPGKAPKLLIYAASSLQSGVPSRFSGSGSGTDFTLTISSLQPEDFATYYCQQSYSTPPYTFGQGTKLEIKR
notes: Human Fab (VH+CH1, VL+CLk); also called SA139 Fab
binding result (human serum albumin [10]): binds
binding result (rat serum albumin [1]): no binding
binding result (bovine serum albumin [14]): no binding
binding result (mouse serum albumin [2]): no binding
